Source: article doi:10.1101/2020.01.27.920827 (bioRxiv, 2020)

Key:
[1] = target: the molecule itself; assay: SDS-resistant oligomer bands on SDS-PAGE after liposome co-sedimentation
FRET or BRET = target: the molecule itself; assay: FRET or BRET

B1: epsin1 ENTH domain, wild type (Rat Epsin1 WT ENTH 1-164) (domain or fragment)
chain: MSTSSLRRQMKNIVHNYSEAEIKVREATSNDPWGPSSSLMSEIADLTYNVVAFSEIMSMIWKRLNDHGKNWRHVYKAMTLMEYLIKTGSERVSQQCKENMYAVQTLKDFQYVDRDGKDQGVNVREKAKQLVALLRDEDRLREERAHALKTKEKLAQTATASSAA
B1: binds [1].

B2: ENTH WT (C96A A155C) domain, labelled with Atto488 maleimide or Atto532 maleimide (domain or fragment)
chain: MSTSSLRRQMKNIVHNYSEAEIKVREATSNDPWGPSSSLMSEIADLTYNVVAFSEIMSMIWKRLNDHGKNWRHVYKAMTLMEYLIKTGSERVSQQAKENMYAVQTLKDFQYVDRDGKDQGVNVREKAKQLVALLRDEDRLREERAHALKTKEKLCQTATASSAA
modifications: Atto488 maleimide (donor population) or Atto532 maleimide (acceptor population), by cysteine modification
B2: binds (FRET or BRET).
